# ± gives the uncertainty stated by the source.
# Test: self-splicing fitness, log relative to wild type (ln ratio); higher = more splicing; Tetrahymena group I intron in knt gene, E. coli kanamycin selection, DiMSum; sequences stand for … in CUCUCU…GGAGGGAAAAGUUAUCAGGCAUGCACCUGGUAGCUAGUCUUUAAACCAAUAGAUUGCAUCGGUUUAAAAGGCAAGACCGUCAAAUUGCGGGAAAGGGGUCAACAGCCGUUCAGUACCAAGUCUCAGGGGAAACUUUGAGAUGGCCUUGCAAAGGGUAUGGUAAUAAGCUGACGGACAUGGUCCUAACCACGCAGCCAAGUCCUAAGUCAACAGAUCUUCUGUUGAUAUGGAUGCAGUUCACAGACUAAAUGUCGGUCGGGGAAGAUGUAUUCUUCUCAUAAGAUAUAGUCGGACCUCUCCUUAAUGGGAGCUAGCGGAUGAAGUGAUGCAACACUGGAGCCGCUGGGAACUAAUUUGUAUGCGAAAGUAUAUUGAUUAGUUUUGGAGUACUCGUGGUCG
# Outline: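 The eight P1ex-region nucleotides of an intron in the knt kanamycin-resistance gene on pET-22b(+) were all randomised and the library put into E. coli BL21(DE3). Six replicate transformations were grown overnight at 37°C or 30°C on LB agar with or without 25 μg/mL kanamycin, together with 100 μg/mL carbenicillin, 50 μM IPTG and 0.2% rhamnose. Colonies were pooled and amplicon-sequenced on an Illumina HiSeq 2500. Fitness from DiMSum is the error-weighted combination of wild-type-normalised replicate fold changes, kanamycin over none.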
Sequence,self-splicing fitness (ln) (30 °C),self-splicing fitness (ln) (37 °C)
GCCCAGCAAUAUUACGCCCA,-0.496 ± 0.15,-1.1 ± 0.17
CGACAGCAAUAUUACGCCGC,–,-1.74 ± 0.36
UUGUAGCAAUAUUACGAAUA,-1.74 ± 0.15,-1.64 ± 0.14
GGGCAGCAAUAUUACGGCUA,-0.49 ± 0.13,0.227 ± 0.14
GAUGAGCAAUAUUACGUCAA,-3.32 ± 0.28,-3.44 ± 0.37
AGGAAGCAAUAUUACGUUCU,-3.47 ± 0.28,-1.59 ± 0.17
CGUGAGCAAUAUUACGUAUC,-1.84 ± 0.16,-2.42 ± 0.27
ACUGAGCAAUAUUACGCUUU,-2.53 ± 0.21,-1.37 ± 0.18
GAUCAGCAAUAUUACGUGAG,-0.0667 ± 0.052,0.101 ± 0.074
AGCCAGCAAUAUUACGACAA,-3.47 ± 0.23,-3.18 ± 0.2
UUGCAGCAAUAUUACGGUUG,-3.07 ± 0.15,-2.04 ± 0.15
AGUGAGCAAUAUUACGACUA,-1.06 ± 0.17,-0.32 ± 0.15
ACUUAGCAAUAUUACGUCGG,-2.34 ± 0.14,-1.59 ± 0.17
CAACAGCAAUAUUACGCUUG,-2.71 ± 0.12,-1.82 ± 0.14
CUCCAGCAAUAUUACGCACU,-2.56 ± 0.14,-3.09 ± 0.32
ACAAAGCAAUAUUACGUUGU,-3.68 ± 0.14,-2.18 ± 0.15
CUGCAGCAAUAUUACGUCUC,–,-2.12 ± 0.26
GAACAGCAAUAUUACGCCGU,-1.98 ± 0.13,-1.61 ± 0.13
CUUUAGCAAUAUUACGGGUC,-3.26 ± 0.17,-1.32 ± 0.21
CGUCAGCAAUAUUACGAAAG,-0.9 ± 0.073,0.129 ± 0.096
ACAAAGCAAUAUUACGGAGA,-3.37 ± 0.19,-2.39 ± 0.19
CAGCAGCAAUAUUACGCCUU,-0.761 ± 0.097,-0.274 ± 0.1
GCGCAGCAAUAUUACGGUGA,-0.545 ± 0.066,-0.107 ± 0.086
GUUAAGCAAUAUUACGUUUU,-3.11 ± 0.15,-1.7 ± 0.16
UUACAGCAAUAUUACGCCUA,0.181 ± 0.11,0.542 ± 0.12
ACCGAGCAAUAUUACGUUCA,-1.34 ± 0.13,-0.705 ± 0.1
AAUCAGCAAUAUUACGAAUC,-0.973 ± 0.1,0.372 ± 0.12

Sequence,self-splicing fitness (ln) (30 °C),self-splicing fitness (ln) (37 °C)
CUGCAGCAAUAUUACGCGUA,-1.22 ± 0.23,-1.53 ± 0.22
AGCUAGCAAUAUUACGUGCC,-2.52 ± 0.36,-1.84 ± 0.27
AGAGAGCAAUAUUACGCGUC,-2.64 ± 0.36,-0.28 ± 0.28
UUGGAGCAAUAUUACGCGUU,-2.97 ± 0.47,-2.47 ± 0.34
CUUAAGCAAUAUUACGCCAG,-2.49 ± 0.22,-2.06 ± 0.33
CUUGAGCAAUAUUACGCCGU,-3.24 ± 0.29,–
AGUGAGCAAUAUUACGACCU,-1.32 ± 0.15,-0.41 ± 0.2
GCUAAGCAAUAUUACGGUGU,-2.48 ± 0.087,-1.6 ± 0.1
GUAAAGCAAUAUUACGCUGU,-0.603 ± 0.083,-1.16 ± 0.12
UGGUAGCAAUAUUACGUAUC,–,-2.38 ± 0.45
CUCAAGCAAUAUUACGCUCA,-3.34 ± 0.26,-2.49 ± 0.24
CUGUAGCAAUAUUACGGACU,-3.43 ± 0.3,-1.83 ± 0.24
GAACAGCAAUAUUACGGAGU,-2.35 ± 0.066,-1.66 ± 0.1
CUUGAGCAAUAUUACGUCUU,-4.1 ± 0.21,-2.48 ± 0.2
UCCGAGCAAUAUUACGUUAG,-3.14 ± 0.15,-2.56 ± 0.24
UUAAAGCAAUAUUACGACAU,-0.271 ± 0.012,0.189 ± 0.032
ACGCAGCAAUAUUACGUUUG,-3.65 ± 0.2,-2.69 ± 0.2
UGAAAGCAAUAUUACGUCAA,-0.68 ± 0.12,-1.31 ± 0.12
CAGGAGCAAUAUUACGGAAA,-2.58 ± 0.14,-2.59 ± 0.23
CUUGAGCAAUAUUACGUGUU,–,-2.54 ± 0.23
CGGAAGCAAUAUUACGAAUC,-3.29 ± 0.3,-2.46 ± 0.29
AGCGAGCAAUAUUACGACCU,-0.933 ± 0.15,-0.654 ± 0.15
UUAAAGCAAUAUUACGACCC,-0.686 ± 0.28,-0.355 ± 0.29
UUGUAGCAAUAUUACGUUCA,-1.07 ± 0.11,-0.717 ± 0.13
GUACAGCAAUAUUACGAGUA,–,-2.65 ± 0.31
AUUAAGCAAUAUUACGGACG,-1.18 ± 0.12,-0.721 ± 0.14
GUCUAGCAAUAUUACGUCAC,-2.9 ± 0.24,-3.04 ± 0.43

Sequence,self-splicing fitness (ln) (30 °C),self-splicing fitness (ln) (37 °C)
CGGUAGCAAUAUUACGUGUG,-0.17 ± 0.062,0.0947 ± 0.09
UACUAGCAAUAUUACGGGCU,-3.52 ± 0.28,-2.87 ± 0.34
GUUUAGCAAUAUUACGUCGA,-1.43 ± 0.28,-0.62 ± 0.28
ACAAAGCAAUAUUACGUGCC,-1.14 ± 0.077,-1.16 ± 0.097
CCGCAGCAAUAUUACGAGAA,-3.07 ± 0.28,-2.24 ± 0.31
UUUGAGCAAUAUUACGGCCG,-2.02 ± 0.35,–
UUUGAGCAAUAUUACGUUUC,–,-2.62 ± 0.35
GACAAGCAAUAUUACGUUAG,-3.84 ± 0.2,-3.34 ± 0.19
GUACAGCAAUAUUACGGGAU,-3.85 ± 0.15,-2.59 ± 0.13
CCCCAGCAAUAUUACGUUGC,-3.41 ± 0.12,-2.78 ± 0.17
UUUGAGCAAUAUUACGCGGU,-2.67 ± 0.28,-2.37 ± 0.35
AGGUAGCAAUAUUACGGCCU,-3.7 ± 0.04,-2.6 ± 0.053
UUCAAGCAAUAUUACGCCCG,-1.16 ± 0.1,-0.594 ± 0.15
CGCCAGCAAUAUUACGAUAA,-3.9 ± 0.46,-2.78 ± 0.35
GCUUAGCAAUAUUACGUGAA,-0.117 ± 0.064,0.311 ± 0.074
GACGAGCAAUAUUACGCAGC,-3.4 ± 0.27,-1.69 ± 0.28
CCUGAGCAAUAUUACGGCCC,-2.54 ± 0.32,–
UGGUAGCAAUAUUACGUCGA,-0.768 ± 0.1,0.144 ± 0.1
UUAUAGCAAUAUUACGAAGG,-3.25 ± 0.39,-1.67 ± 0.33
AGAAAGCAAUAUUACGCACU,-0.82 ± 0.15,-1.17 ± 0.18
GUGGAGCAAUAUUACGCCGG,-2.57 ± 0.46,–
AUUGAGCAAUAUUACGCGGC,-3.26 ± 0.38,–
CCACAGCAAUAUUACGUGCU,-3.61 ± 0.17,-2.88 ± 0.17
AGUAAGCAAUAUUACGGAUU,-1.92 ± 0.13,-0.84 ± 0.16
CACAAGCAAUAUUACGAAUG,-1.79 ± 0.074,-1.2 ± 0.073

# From the supplement of paper PMC7877785
